These results are taken from patent US6541002B1, “Compositions and methods for providing a protein to a virion” (Thomas Jefferson University, priority 1998, dated 2003).

Data set [1] relates to HIV-1 virions. In words: CAT activity assay of HIV-1 virions from co-transfected 293T cells (incorporation into virions). It is filed as cell-based. Here is the method:
About 10^6 293T cells were grown in dishes having a diameter of 10 centimeters. These cells were co-transfected with 10 micrograms of either plasmid pNL4-3 or plasmid pNL4-3DVpr, and with 10 micrograms of a plasmid selected from the group consisting of plasmid pSLXCMV-CAT, plasmid pSLXCMV-VPR-CAT, and plasmid pSLXCMV-dWF-CAT. After transfection, the cells were incubated in medium for about seven hours. The medium was then removed and replaced with fresh medium, and cells and medium were collected about forty-eight hours after the medium was replaced. At that time, the medium comprised virus produced by the cells. The amount of virus present in the medium was determined by assessing the amount of HIV-1 p24 antigen in the medium, using a p24 ELISA kit obtained from Dupont (Wilmington, Del.).
CAT activity assays were performed as described (Refaeli et al., 1995, Proc. Natl. Acad. Sci. USA 92:3621-3625). Briefly, about 10^6 transfected cells were harvested by centrifugation. Pelleted cells were lysed in 0.9 milliliter of CAT lysis buffer (Promega Corp., Madison, Wis.) to yield a crude extract. 50 microliters of crude extract was used in CAT assays, and the results of the assays were normalized to account for variation in the protein content of the various crude extracts which were made.
Virions obtained from the medium in which transfected 293T cells were grown were concentrated by ultracentrifuging the medium in a Sorval A-621 rotor for about three hours at 20,000 rotations per minute. […] The amount of HIV-1 p24 antigen in each fraction was assessed, and fractions containing the greatest amounts of p24 were selected. […] CAT activity was assessed in lysed virion preparations.
CAT activity was assessed by thin-layer chromatographic separation of ^14C-chloramphenicol from its acetylated derivatives. Radioactivity was quantitated by standard liquid scintillation methods. […]

For data set [2], the system named is HIV-1 virions. In words: Western blotting analyses of complemented HIV-1 virions. Conditions: integration-competent progeny virions. Here is the method:
293T cells were grown in duplicate 100×20 millimeter culture dishes and transfected as described in the previous section. Virions released into the cell culture medium 2 ½ to 3 days post-transfection were centrifuged at 2000 rpm for 5 minutes at 4° C. to remove cellular debris. Afterward, virions were concentrated by adding 10 milliliters of cell medium atop 2 milliliters of buffered, isotonic 20% (w/v) sucrose, and ultracentrifuging the cushioned medium at 40,000 rpm for 2 hours. The bulk of the solution was removed by careful pipetting, and pelleted virions (visible as slight white pellets) were removed from the bottom of the ultracentrifuge tubes by resuspension in residual medium, typically resulting in a volume of 60 to 100 microliters of concentrated virus particles.
Particles were loaded into 10-20% (w/v) Tris-HCl or Tris-tricine precast gradient gels (Bio-Rad Laboratories, Richmond, Calif.) and electrophoresed until the bromphenyl blue marker migrated to at least the bottom of the gel. […] IN or IN chimera proteins were detected using a rabbit anti-IN polyclonal serum and visualized by chemiluminescence development (NEN Life Science Products) of bound HRP-conjugated anti-rabbit 1gG antisera used at 1/1500 dilution (Sigma Chemical Co., St. Louis, Mo.).

In data set [3] the test system is IN-Defective HIV-1 Particles. In words: Syncytia formation assay with IN-defective HIV-1 particles complemented with IN chimeras. It counts as cell-based. The source says:
Using the calcium phosphate method for delivery of DNA into cells (Profection™, Promega Corp., Madison, Wis.), cells of human kidney carcinoma cell line 293T were transfected using HIV-1 proviral clones or co-transfected with these templates and SLX-CMV-VPR-IN, SLX-CMV-VPR-PR-IN, SLX-CMV-WF-IN, or SLX-CMV-dWF-PR-IN. Three days post-transfection, cell supernatants containing virus were harvested and clarified by low-speed centrifugation. HeLa-CD4-LTR/β-gal cells grown in either 60×14 or 35×10 millimeter plates were infected in duplicate at about 10-15% confluence using various viral stocks. Addition of supernatant to these MAGI reporter cells was adjusted, based upon HIV-1 p24 antigen content as quantitated by ELISA analysis (Kimpton et al., 1992, J. Virol. 66:2232-2239). MAGI cells contain an integrated cassette comprising the β-galactoside gene (β-gal) under the control of the HIV-1 long terminal repeat, and therefore can be stained for β-galactosidase activity (typically 48-72 hours post-infection).
Infected cells were fixed in a solution comprising 0.2% (v/v) glutaraldehyde and 1% (v/v) formaldehyde for 5 minutes at room temperature. Following fixation, cells were washed with phosphate buffered saline and stained using bromo-4-chloro-3-indolyl-β-D-galactopyranoside for 2 hours at 37° C. Representative fields of stained cells were photographed and numbers of deeply stained syncytia were determined either by visual counting through a microscope or from series of photographs taken in various fields of the stained cells using an Olympus CK2 microscope.
IN activity was detected using the syncytia formation assay described in this Example.

Where [4] appears, read: virions from 293T cells co-transfected with pNL4-3 (Vpr expressed).
Setting [5] is: HIV-1 provirus template D116N (Table 4).
The mark [6] stands for this setting: HIV-1 provirus template D116N, average of duplicate experiments (Table 4).
Where [7] appears, read: HIV-1 provirus template IN (1-4) (Table 5).
[8] abbreviates: HIV-1 provirus template IN (1-234) (Table 5).

B1: CAT: chloramphenicol acetyltransferase, a protein which does not normally comprise a Vpr-binding region (protein)
chain: MEKKITGYTTVDISQWHRKEHFEAFQSVAQCTYNQTVQLDITAFLKTVKKNKHKFYPAFIHILARLMNAHPEFRMAMKDGELVIWDSVHPCYTVFHEQTETFSSLWSEYHDDFRQFLHIYSQDVACYGENLAYFPKGFIENMFFVSANPWVSFTSFDLNVANMDNFFAPVFTMGKYYTQGDKVLMPLAIQVHHAVCDGFHVGRMLNELQQYCDEWQGGA
For B1, the “CAT activity of virions (conversion of chloramphenicol to an acetylated product)” value in the data set with HIV-1 virions [1] (setting [4]) is listed as 8 % conversion.

B2: dWF-IN: dWF peptide (SEQ ID NO: 1) fused at its carboxyl terminus to the amino terminus of HIV-1 IN (protein)
chain: MQPWWAFFGGGSSWWSFSMGPTRFLDGIDKAQEEHEKYHSNWRAMASDFNLPPVVAKEIVASCDKCQLKGEAMHGQVDCSPGIWQLDCTHLEGKVILVAVHVASGYIEAEVIPAETGQETAYFLLKLAGRWPVKTVHTDNGSNFTSTTVKAACWWAGIKQEFGIPYNPQSQGVIESMNKELKKIIGQVRDQAEHLKTAVQMAVFIHNFKRKGGIGGYSAGERIVDIIATDIQTKELQKQITKIQNFRVYYRDSRDPVWKGPAKLLWKGEGAVVIQDNSDIKVVPRRKAKIIRDYGKQMAGDDCVASRQDED
Turning to B2, the “amount of fusion protein incorporated into progeny virions” value in the data set on HIV-1 virions [2] was “equal to the amount of IN(D116N) protein incorporated into progeny virions”. For the same molecule, the “% of Wild Type (syncytia)” value in data set [3] (setting [5]) is recorded as 20.8%. Further, the “Number of Syncytia Formed” value in data set [3] (setting [6]) is listed as 42; in data set [3] (setting [7]) it was 10; in data set [3] (setting [8]), 14.

B3: dWF-PR-IN: dWF peptide (SEQ ID NO: 1) fused to the HIV-1 protease cleavage site (PR), which is fused to the amino terminus of IN (protein)
chain: MQPWWAFFGGGSSWWSFSMGPTRFLDGIDKAQEEHEKYHSNWRAMASDFNLPPVVAKEIVASCDKCQLKGEAMHGQVDCSPGIWQLDCTHLEGKVILVAVHVASGYIEAEVIPAETGQETAYFLLKLAGRWPVKTVHTDNGSNFTSTTVKAACWWAGIKQEFGIPYNPQSQGVIESMNKELKKIIGQVRDQAEHLKTAVQMAVFIHNFKRKGGIGGYSAGERIVDIIATDIQTKELQKQITKIQNFRVYYRDSRDPVWKGPAKLLWKGEGAVVIQDNSDIKVVPRRKAKIIRDYGKQMAGDDCVASRQDED
modifications: left off: small tags and cut ends
For B3, the “% of Wild Type (syncytia)” value in data set [3] (setting [5]) came out at 25.7%; in data set [3] (HIV-1 provirus template IN (1-234) (Table 4)), 21.7%. For the same molecule, the “Number of Syncytia Formed” value in data set [3] (setting [6]) is 52; in data set [3] (setting [7]), 18; in data set [3] (setting [8]) it was 20; in data set [3] (HIV-1 provirus template IN (1-234), average of duplicate experiments (Table 4)), 44.

B4: WF-CAT (protein)
chain: MQPWWAFFGGGSSWWSFSMGPTRMEKKITGYTTVDISQWHRKEHFEAFQSVAQCTYNQTVQLDITAFLKTVKKNKHKFYPAFIHILARLMNAHPEFRMAMKDGELVIWDSVHPCYTVFHEQTETFSSLWSEYHDDFRQFLHIYSQDVACYGENLAYFPKGFIENMFFVSANPWVSFTSFDLNVANMDNFFAPVFTMGKYYTQGDKVLMPLAIQVHHAVCDGFHVGRMLNELQQYCDEWQGGA
As to B4, the “CAT activity of virions (conversion of chloramphenicol to an acetylated product)” value stood at 28 % conversion in the data set on HIV-1 virions [1] (setting [4]) and 8 % conversion in the data set with HIV-1 virions [1] (virions from 293T cells co-transfected with pNL4-3DVpr (Vpr not expressed)).
